Measurements as given in patent US20250297282A1.

Molecular target: GFP-encoding lentiviral particles

StrepTactin Superflow column (0.2 mL resin bed, 3 mg binding capacity per mL; IBA Lifesciences GmbH)
GFP+ cells (gate over CD8- and CD8+ cells) among T cells five days after transduction with the biotin elution fraction of the column without VBP (-VB), by flow cytometry: 0.069%
